Paper PMC7321962

Key:
[1] = biological target: T1, XPG-FLAG (full-length WT) (Homo sapiens, UniProt P28715 1-1186); assay: EMSA
T1 sequence: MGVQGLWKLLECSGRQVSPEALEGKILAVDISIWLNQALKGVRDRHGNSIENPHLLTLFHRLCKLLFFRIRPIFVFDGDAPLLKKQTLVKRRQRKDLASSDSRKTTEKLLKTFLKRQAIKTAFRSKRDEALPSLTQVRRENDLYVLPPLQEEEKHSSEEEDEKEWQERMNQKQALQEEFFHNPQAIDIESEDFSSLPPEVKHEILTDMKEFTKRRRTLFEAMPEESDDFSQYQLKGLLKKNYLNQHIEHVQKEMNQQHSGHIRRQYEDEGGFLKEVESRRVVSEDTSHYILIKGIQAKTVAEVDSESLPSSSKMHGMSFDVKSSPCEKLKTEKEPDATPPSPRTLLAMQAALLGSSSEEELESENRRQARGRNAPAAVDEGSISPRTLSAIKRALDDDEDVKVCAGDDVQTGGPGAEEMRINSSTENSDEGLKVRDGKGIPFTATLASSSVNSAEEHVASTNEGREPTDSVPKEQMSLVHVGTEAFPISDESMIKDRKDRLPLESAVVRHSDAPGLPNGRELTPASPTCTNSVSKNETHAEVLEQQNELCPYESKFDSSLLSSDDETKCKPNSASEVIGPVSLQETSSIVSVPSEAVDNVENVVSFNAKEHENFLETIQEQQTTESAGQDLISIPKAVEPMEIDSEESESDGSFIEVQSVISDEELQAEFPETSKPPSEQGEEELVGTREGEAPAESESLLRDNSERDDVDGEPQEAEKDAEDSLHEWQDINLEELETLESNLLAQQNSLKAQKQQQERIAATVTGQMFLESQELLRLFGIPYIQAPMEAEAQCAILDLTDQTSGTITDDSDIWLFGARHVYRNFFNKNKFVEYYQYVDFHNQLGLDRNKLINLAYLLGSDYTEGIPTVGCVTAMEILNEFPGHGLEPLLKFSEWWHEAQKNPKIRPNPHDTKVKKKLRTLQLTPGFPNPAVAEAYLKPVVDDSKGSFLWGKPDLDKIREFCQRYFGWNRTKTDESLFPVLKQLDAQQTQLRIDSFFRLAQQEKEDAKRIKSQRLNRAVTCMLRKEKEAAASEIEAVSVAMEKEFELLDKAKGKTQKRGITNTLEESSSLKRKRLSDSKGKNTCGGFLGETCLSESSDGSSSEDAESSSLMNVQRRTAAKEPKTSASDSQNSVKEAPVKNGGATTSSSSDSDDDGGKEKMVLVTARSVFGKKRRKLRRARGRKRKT

XPG FF67,68AA = biological target: T2, XPG FF67,68AA (Homo sapiens, UniProt P28715 1-1186, F67A;F68A); assay: EMSA
T2 sequence: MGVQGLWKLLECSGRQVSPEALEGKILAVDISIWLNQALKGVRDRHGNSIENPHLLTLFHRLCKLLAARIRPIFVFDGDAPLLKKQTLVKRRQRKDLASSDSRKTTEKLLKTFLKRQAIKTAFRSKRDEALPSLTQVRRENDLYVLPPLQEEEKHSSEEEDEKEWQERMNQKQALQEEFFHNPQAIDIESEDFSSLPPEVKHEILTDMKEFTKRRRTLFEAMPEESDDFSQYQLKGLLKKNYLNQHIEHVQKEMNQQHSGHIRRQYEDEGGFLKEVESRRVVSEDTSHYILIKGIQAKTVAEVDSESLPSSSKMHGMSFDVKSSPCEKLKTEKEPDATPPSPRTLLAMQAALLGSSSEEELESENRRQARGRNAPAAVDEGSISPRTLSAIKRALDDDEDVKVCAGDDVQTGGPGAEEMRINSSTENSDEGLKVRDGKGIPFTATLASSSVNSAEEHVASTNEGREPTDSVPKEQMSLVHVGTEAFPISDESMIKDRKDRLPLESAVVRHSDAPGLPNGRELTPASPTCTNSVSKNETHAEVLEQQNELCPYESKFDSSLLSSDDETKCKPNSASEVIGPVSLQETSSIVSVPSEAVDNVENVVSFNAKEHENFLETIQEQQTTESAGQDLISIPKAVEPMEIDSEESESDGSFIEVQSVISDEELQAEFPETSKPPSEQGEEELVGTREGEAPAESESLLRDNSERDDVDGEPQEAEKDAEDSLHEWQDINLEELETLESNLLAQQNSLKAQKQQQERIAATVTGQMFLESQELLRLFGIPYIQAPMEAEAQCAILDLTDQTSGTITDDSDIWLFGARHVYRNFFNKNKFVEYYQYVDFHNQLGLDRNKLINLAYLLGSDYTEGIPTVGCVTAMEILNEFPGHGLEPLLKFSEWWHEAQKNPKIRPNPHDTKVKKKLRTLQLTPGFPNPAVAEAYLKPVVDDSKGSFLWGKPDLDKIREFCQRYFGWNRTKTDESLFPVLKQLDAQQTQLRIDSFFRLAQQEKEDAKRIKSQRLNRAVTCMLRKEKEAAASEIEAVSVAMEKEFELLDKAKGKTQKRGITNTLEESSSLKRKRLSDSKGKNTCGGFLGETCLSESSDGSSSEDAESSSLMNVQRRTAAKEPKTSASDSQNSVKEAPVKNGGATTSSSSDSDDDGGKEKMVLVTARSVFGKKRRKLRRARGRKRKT

B1: HP15T/C 15-nt bubble DNA (mixed)
DNA 1: CGCGAAGCGGGGCAGACAACGTGGCGCTGTTTTTTTTTTTTTTTGTGTCCTAGCACAGCGTATG
DNA 2: CGCGAAGCGCATACGCTGTGCTAGGACACCCCCCCCCCCCCCCCCAGCGCCACGTTGTCTGCCC
binding result [1]: binds | binding result (XPG FF67,68AA): binds
